The data set deals with the molecule itself. Kind of data set: crystal structure.

B1: MetA crystallisation construct (C-terminal residues 297-309 truncated, P257I) (enzyme, E. coli, UniProt P07623 2-296, looked up)
chain: PIRVPDELPAVNFLREENVFVMTTSRASGQEIRPLKVLILNLMPKKIETENQFLRLLSNSPLQVDIQLLRIDSRESRNTPAEHLNNFYCNFEDIQDQNFDGLIVTGAPLGLVEFNDVAYWPQIKQVLEWSKDHVTSTLFVCWAVQAALNILYGIPKQTRTEKLSGVYEHHILHPHALLTRGFDDSFLAPHSRYADFPAALIRDYTDLEILAETEEGDAYLFASKDKRIAFVTGHPEYDAQTLAQEFFRDVEAGLDIDVPYNYFPHNDPQNTPRASWRSHGNLLFTNWLNYYVYQI
For B1, the binding result is on record as “binds”.
